Results taken from US20140304847.

Experiments:
[1] = tested on: ZFN-Rab38-L (artificial); assay: cell_activity; details: with ZFN-Rab38-R; 3 of 52 mice from mRNA-injected zygotes with Rab38-cht vector, no NHEJ inhibition
[2] = tested on: ZFN-Rab38-R (artificial); assay: cell_activity; details: with ZFN-Rab38-L; 3 of 52 mice from mRNA-injected zygotes with Rab38-cht vector, no NHEJ inhibition

Row | Sequence | activity (% targeted mice) [1] | activity (% targeted mice) [2]
1 | ATGCAGACACCTCACAAGGAGCACCTGTACAAGCTGCTGGTGATCGGCGACCTGGGTGTGGGCAAGACCAGCATTATCAAGCGCTATGTGCACCAAAACTTCTCCTCGCACTACCGGGCCACCATTGGTGTGGACTTCGCGCTGAAGGTGCTCCACTGGGACCCAGAGACGGTGGTGCGCTTGCAGCTCTGGGACATTGCTG (double strand) [Rab38 exon 1 ZFN-L half-site] | 5 | 
2 | ATGCAGACACCTCACAAGGAGCACCTGTACAAGCTGCTGGTGATCGGCGACCTGGGTGTGGGCAAGACCAGCATTATCAAGCGCTATGTGCACCAAAACTTCTCCTCGCACTACCGGGCCACCATTGGTGTGGACTTCGCGCTGAAGGTGCTCCACTGGGACCCAGAGACGGTGGTGCGCTTGCAGCTCTGGGACATTGCTG (double strand) [Rab38 exon 1 ZFN-R half-site] |  | 5
